Source: patent US20240002497A1 (Merck Sharp & Dohme, published 2024)
Numbering of substitutions follows the chain as printed. Names may count otherwise.

B1: F010302348 (VHH)
VHH: EVQLVESGGGVVQPGGSLRLSCAASHRAFIRDLFTGWYRQAPGKQRELVARIYESGNTNYADSAKGRFTISRDNAKKTVYLQMNSLRPEDTALYYCLFSGTISTGREYRSGDYWGQGTLVTVSS
B2: F010302351 (VHH)
VHH: B1 VHH with H26S, A28Q, L33V, Q40R, N59Q, A64V
B3: F010302361 (VHH)
VHH: B1 VHH with A28Q, L33V, S55G, N59Q, A64V
B4: F010302359 (VHH)
VHH: B1 VHH with H26S, A28Q, L33V, N59Q, A64V
B5: F010302352 (VHH)
VHH: B1 VHH with A28Q, L33V, Q40R, E54N, S55E, N59Q, A64V
B6: F010302360 (VHH)
VHH: B1 VHH with A28Q, L33V, E54N, S55E, N59Q, A64V
B7: F010302356 (VHH)
VHH: B1 VHH with Q40R, A64V
B8: F010302362 (VHH)
VHH: B1 VHH with L33V, N59Q, A64V
B9: F010302350 (VHH)
VHH: B1 VHH with H26S, A28Q, L33V, Q40R, E54N, S55E, N59Q, A64V
B10: F010302358 (VHH)
VHH: B1 VHH with H26S, A28Q, L33V, E54N, S55E, N59Q, A64V
B11: F010302354 (VHH)
VHH: B1 VHH with L33V, Q40R, N59Q, A64V
B12: F010302353 (VHH)
VHH: B1 VHH with A28Q, L33V, Q40R, S55G, N59Q, A64V
B13: F010302364 (VHH)
VHH: B1 VHH with A64V
B14: F010302312 (VHH)
VHH: EVQLVESGGGVVQPGGSLRLSCAASGPVFNINRMAWYRQAPGKQRELVAYVTPTGDISYADSVKGRFTISRDGSKRVYLQMNSLRPEDTALYYCRALLQPDSYSITRTYWGQGTLVTVSS
notes: also called F0103387G04(L11V, A12V, K33R, R39Q, S50Y, S56D, T60A, W78V, S79Y, T83R, V89L, N93R, N100cI)
B15: F010302320 (VHH)
VHH: B14 VHH with G73A, I105N
notes: also called F0103387G04(L11V, A12V, K33R, R39Q, S50Y, S56D, T60A, G73A, W78V, S79Y, T83R, V89L, N93R)
B16: F010301845 (VHH)
VHH: B14 VHH with A60T, Y78S, I105N
notes: also called F0103387G04(L11V, A12V, K33R, R39Q, S50Y, S56D, W78V, T83R, V89L, N93R)
B17: F010301843 (VHH)
VHH: B14 VHH with A60T, G73N, V77W, Y78S, I105N
notes: also called F0103387G04(L11V, A12V, K33R, R39Q, S50Y, S56D, G73N, T83R, V89L, N93R)
B18: F010301847 (VHH)
VHH: B14 VHH with G73N, R76N, I105N
notes: also called F0103387G04(L11V, A12V, K33R, R39Q, S50Y, S56D, T60A, G73N, R76N, W78V, S79Y, T83R, V89L, N93R)
B19: F010301656 (VHH)
VHH: B14 VHH with V11L, V12A, Q39R, A60T, V77W, Y78S, R85T, L91V, I105N
notes: also called F0103387G04(K33R, S50Y, S56D, N93R)
B20: F010302317 (VHH)
VHH: B14 VHH with G73R, D101R
notes: also called F0103387G04(L11V, A12V, K33R, R39Q, S50Y, S56D, T60A, G73R, W78V, S79Y, T83R, V89L, N93R, D99R, N100cI)-FLAG3-HIS6
B21: F010302313 (VHH)
VHH: B14 VHH with G73A
notes: also called F0103387G04(L11V, A12V, K33R, R39Q, S50Y, S56D, T60A, G73A, W78V, S79Y, T83R, V89L, N93R, N100cI)
B22: F010301866 (VHH)
VHH: B14 VHH with R76N, I105N
notes: also called F0103387G04(L11V, A12V, K33R, R39Q, S50Y, S56D, T60A, R76N, W78V, S79Y, T83R, V89L, N93R)
B23: F010301848 (VHH)
VHH: B14 VHH with G73N, I105N
notes: also called F0103387G04(L11V, A12V, K33R, R39Q, S50Y, S56D, T60A, G73N, W78V, S79Y, T83R, V89L, N93R)
B24: F010301844 (VHH)
VHH: B14 VHH with A60T, R76N, V77W, Y78S, I105N
notes: also called F0103387G04(L11V, A12V, K33R, R39Q, S50Y, S56D, R76N, T83R, V89L, N93R)
B25: F010302314 (VHH)
VHH: B14 VHH with G73R
notes: also called F0103387G04(L11V, A12V, K33R, R39Q, S50Y, S56D, T60A, G73R, W78V, S79Y, T83R, V89L, N93R, N100cI)
B26: F010302315 (VHH)
VHH: B14 VHH with D101R
notes: also called F0103387G04(L11V, A12V, K33R, R39Q, S50Y, S56D, T60A, W78V, S79Y, T83R, V89L, N93R, D99R, N100cI)
B27: F010301841 (VHH)
VHH: B14 VHH with A60T, V77W, Y78S, I105N
notes: also called F0103387G04(L11V, A12V, K33R, R39Q, S50Y, S56D, T83R, V89L, N93R)
B28: F010302325 (VHH)
VHH: B14 VHH with G73R, I105N
notes: also called F0103387G04(L11V, A12V, K33R, R39Q, S50Y, S56D, T60A, G73R, W78V, S79Y, T83R, V89L, N93R)
B29: F010301846 (VHH)
VHH: B14 VHH with A60T, V77W, I105N
notes: also called F0103387G04(L11V, A12V, K33R, R39Q, S50Y, S56D, S79Y, T83R, V89L, N93R)
B30: F010301842 (VHH)
VHH: B14 VHH with V77W, Y78S, I105N
notes: also called F0103387G04(L11V, A12V, K33R, R39Q, S50Y, S56D, T60A, T83R, V89L, N93R)

Tests used:
rhNav1.7α + β1-β2-β3 = molecular target: T1, rhNav1.7α + β1-β2-β3 (rhesus monkey); assay: binding FACS, CHO FlpIn
T1 construct: also called rhNav1.7-beta1-beta2-beta3; rhNav1.7-β1-β2-β3
Method: (§1) Binding of the ISVDs to cell-expressed Nav1.7α was detected via murine anti-Flag (Sigma, catalog #F1804). Briefly, cells were resuspended in FACS buffer (PBS, 10% FBS, NaN₃) and transferred to a 96-well V-bottom plate at 1×10^5 cells/well. Purified FLAG3-tagged ISVD was diluted in FACS buffer and added to the cells for 30 minutes at 4° C. […] Prior to the read-out, the samples were resuspended in 1 μg/mL propidium iodide (Sigma, catalog #P4170) to exclude dead cells. Between each step, the cells were centrifuged for 5 minutes at 200 grams and washed with 100 μL/well FACS buffer.

huNav1.7α + β1-β2-β3 = molecular target: T2, huNav1.7α + β1-β2-β3 (human, UniProt Q15858 1-1988; A5A6L6 19-218; O60939 30-215; Q2KI11 23-215); assay: binding FACS, CHO FlpIn
T2 construct: also called huNav1.7-beta1-beta2-beta3; huNav1.7-β1-β2-β3
Method: as §1

[1] = molecular target: T3, huNav1.7α + β1-β2-β3 (human Nav1.7α co-expressed with human Navβ1, Navβ2 and Navβ3 on cells) (human); assay: binding FACS, CHO FlpIn cells
T3 construct: also called huNav1.7-beta1-beta2-beta3; CHO FlpIn huNav1.7α + β1-β2-β3
Method: as §1

[2] = molecular target: T4, rhNav1.7α + β1-β2-β3 (rhesus Nav1.7α co-expressed with Navβ1, Navβ2 and Navβ3 on cells) (rhesus monkey (α subunit); β subunits …); assay: binding FACS, CHO FlpIn cells
T4 construct: also called rhNav1.7-beta1-beta2-beta3; CHO FlpIn rhNav1.7α + β1-β2-β3
Method: as §1

| Binder | Bmax (rhNav1.7α + β1-β2-β3) [%] | EC50 (rhNav1.7α + β1-β2-β3) [nM] | Bmax (huNav1.7α + β1-β2-β3) [%] | EC50 (huNav1.7α + β1-β2-β3) [nM] | Bmax [1] [%] | EC50 [1] [nM] | Bmax [2] [%] | EC50 [2] [nM] |
| --- | --- | --- | --- | --- | --- | --- | --- | --- |
| B1 | 95 | 14 | 100 | 6.7 |  |  |  |  |
| B2 | 72 | 15 | 100 | 5.6 |  |  |  |  |
| B3 | 92 | 11 | 100 | 4.8 |  |  |  |  |
| B4 | 66 | 24 | 100 | 6.4 |  |  |  |  |
| B5 | 60 | 11 | 100 | 3.6 |  |  |  |  |
| B6 | 58 | 15 | 100 | 3.5 |  |  |  |  |
| B7 | 81 | 12 | 100 | 5.3 |  |  |  |  |
| B8 | 89 | 14 | 100 | 5.4 |  |  |  |  |
| B9 | 46 | 15 | 100 | 3.5 |  |  |  |  |
| B10 | 37 | 37 | 100 | 4.5 |  |  |  |  |
| B11 | 96 | 7.9 | 100 | 4.2 |  |  |  |  |
| B12 | 93 | 7.9 | 100 | 4.2 |  |  |  |  |
| B13 | 74 | 17 | 100 | 7.2 |  |  |  |  |
| B14 |  |  |  |  | 100 | 24 | 100 | 18 |
| B15 |  |  |  |  | 99 | 30 | 100 | 21 |
| B16 |  |  |  |  | 100 | 17 | 100 | 8 |
| B17 |  |  |  |  | 100 | 18 | 100 | 9.3 |
| B18 |  |  |  |  | 100 | 67 | 100 | 29 |
| B19 |  |  |  |  | 100 | 17 | 100 | 8 |
| B20 |  |  |  |  | 91 | 6.8 | 13 | 19 |
| B21 |  |  |  |  | 100 | 38 | 96 | 34 |
| B22 |  |  |  |  | 100 | 38 | 100 | 18 |
| B23 |  |  |  |  | 100 | 44 | 100 | 19 |
| B24 |  |  |  |  | 100 | 23 | 100 | 11 |
| B25 |  |  |  |  | 100 | 16 | 98 | 14 |
| B26 |  |  |  |  | 100 | 7.2 | 23 | 39 |
| B27 |  |  |  |  | 100 | 14 | 100 | 7.6 |
| B28 |  |  |  |  | 96 | 13 | 99 | 8.7 |
| B29 |  |  |  |  | 100 | 21 | 100 | 11 |
| B30 |  |  |  |  | 100 | 15 | 100 | 7.9 |
